± gives the uncertainty stated by the source.

A short description of this data set: amyloid nucleation score (Sup35N fusion, yeast selection) (log enrichment); library NNK3; higher = more nucleation; inactive = no reads after selection. The gist of the method: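 Using DiMSum, nucleation scores were taken as the log enrichment of output over input reads, centred on the mode score of non-aggregating sequences. The input and output reads came from Illumina sequencing of plasmid inserts, with sequences under 100 input reads excluded. The yeast were psi-negative, expressed Sup35N fused to peptides of 20 random codons, were induced with 100 μM copper sulfate for 24 hours, and were grown 7 days at 30°C on medium lacking adenine and uracil.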
As for SKTGGFFNAVHASCPGVPLQ, the amyloid nucleation score result was “inactive”.
Then SKTVDNGKMRKDWLGRQPWK, with -0.362 ± 0.51; and SLAIMCCKIWPLLIMYILIT, with “inactive”; and SLCTSEYFHSTYRNITGLVL, with “inactive”.
The substance SLCWSLNGFNLLISFDFRRN yielded an amyloid nucleation score of 0.785 ± 0.14.
Take SLGMMVWVH: the amyloid nucleation score result was “inactive”.
The result for SLGSVVTSFASEMWTADGTR reads “inactive”.
For the substance SLIFQDGGDNVNDLKVCVDY, the amyloid nucleation score result is “inactive”.
For SLIGSRGPLNSGEVMMMLFK, the amyloid nucleation score entry was “inactive”.
Then SLIITTLTHEYCMCHRIWST, with 2.25 ± 0.071; and SLISNCPIVWNRIWISYHFH, with 0.738 ± 0.3.
The result for SLISSALDIISDRYGLHVNN reads “inactive”; that for SLIWPSYDYLDNFLGYYSLK, “inactive”.
Then SLKFIELDMSIVVMSSDYFR, with “inactive”; and SLKRHQTWLDGVEVRVVYMP, with “inactive”; and SLLDDRSPGLWILKTKVTAF, with “inactive”.
On to SLLGSEGVSLIFLHYYWWSA, for which the amyloid nucleation score entry was “inactive”.
The result for SLLTFCFHIESLWMWYWMCH reads “inactive”; that for SLMSFRYLRTFKWRSMSILS, “inactive”; that for SLMSSATICTFMG, “inactive”.
Then SLNEHNAGGIVTLHWQSIES, with “inactive”; and SLNKWVGCRSRIRWDLGTQF, with “inactive”; and SLPLCWAMAKGSISHRMERY, with “inactive”.
The result for SLPWVIF reads “inactive”; that for SLRWLISESAMRVKTMWRGG, “inactive”; that for SLSSIGSDFNGGC, “inactive”.
Take SLSSSWFFNISSNADMPCYN: the amyloid nucleation score result was “inactive”.
Then SLTLGCSDLGKGCREETYAG, with “inactive”.
Then SLVEAGMFTQFS, with “inactive”; and SMADHAESLNSSGSNRQQLG, with “inactive”.
The result for SMAMFIFMITLVCYFKDSPW reads “inactive”; that for SMDTSTPTIV, “inactive”.
With SMDVKHRR, the amyloid nucleation score entry is “inactive”.
In the case of SMFKLMRP, the amyloid nucleation score entry is “inactive”.
The result for SMGVFAKRRKGRWNTYSIKA reads “inactive”; that for SMIKPAIFGYNVMLVPYINC, “inactive”; that for SMKQMNMQHSSPRNRTDGRR, “inactive”.
The result for SMKVEEIICGFAVVYIDTMY reads 0.256 ± 0.28; that for SMNACSRNGLGMWKVMDLFT, “inactive”; that for SMNFLLLISMCNLWPSYAAL, 1.36 ± 0.14.
Then SMNFVLLRGGRRMIQQDRVR, with “inactive”; and SMPRAEHSDVSCYAHYFSFR, with “inactive”; and SMSNQSSTFDSLLFRQWLVV, with “inactive”.
In the case of SMSTN, the amyloid nucleation score entry is “inactive”.
The result for SMYDKGMGYTCVKSSVNLFV reads “inactive”.
With SMYVYPFELVSVDGRLVRTA, the amyloid nucleation score result was “inactive”.
Then SNCFQYECMSWSWDYLHECW, with “inactive”; and SNCGL, with 0.832 ± 0.28.
The result for SNDCRVTVTVFSIGRDSYVL reads 2.28 ± 0.089.
The result for SNDMRGLVGEEIGFLSWN reads “inactive”; that for SNDNGTHVSNYRALSSDREK, “inactive”.
For the substance SNGNMLRSYVSTPCDRGKGS, the amyloid nucleation score entry is “inactive”.
Then SNITSCLNSQRKMDLAFYRV, with “inactive”.
In the case of SNLVGCKLIHV, the amyloid nucleation score result is “inactive”.
Then SNNLKLAPGSWVPYSDRIHR, with “inactive”; and SNPHDDSHDVILVFLVLGRC, with “inactive”.
The result for SNRGVADLDLRGLWTARE reads “inactive”; that for SNRQSSGISF, -0.784 ± 2.5; that for SNRVRMSFLLADVYCNQTEV, -0.183 ± 0.42.
The result for SNSMPSGNSRMVCCRDPSFP reads “inactive”; that for SNSMS, “inactive”; that for SNSSHRRYYGHVRRNL, “inactive”.
For the substance SNTFRTIGS, the amyloid nucleation score result is “inactive”.
For the substance SNWEFYDRYTYRRLGLEQKV, the amyloid nucleation score result is “inactive”.
The result for SPLSVGEHSEMWLRLVFG reads “inactive”.
With SPPKAAKCICAISSWSLWWT, the amyloid nucleation score entry is “inactive”.
Regarding SPPSQYSVDQIFHMSWLVYY, the amyloid nucleation score result is “inactive”.
Then SPQFELLDITKPCRT, with “inactive”; and SPRVSMYMSSQKGLEPWESV, with “inactive”.
The result for SPTLRFGRQKFRQCGVKRVS reads 1.35 ± 0.11.
The result for SPVRVDWFSKRFSGYVMRTM reads “inactive”; that for SPYVYRTWFRTLEYCTRDDM, “inactive”.
For the substance SQCFIY, the amyloid nucleation score was -0.514 ± 0.78.
The result for SQCGLTHSLVVGGSSVNTHT reads “inactive”; that for SQCRVYN, “inactive”; that for SQFQGAMMYFCEEMCICFFC, 2.01 ± 0.097.
The result for SQFTFNCTIFNGL reads 2.65 ± 0.064.
As for SQKRPMCFSCWTHMVFHSWF, the amyloid nucleation score is -0.257 ± 0.46.
The result for SQLLYI reads “inactive”; that for SQVFTVALNVPNNR, “inactive”; that for SRACSTHCIFEGTWSG, “inactive”.
The result for SRCSSGRLCWRFASHSRGTS reads -0.826 ± 1.4.
The result for SRCWGDILPLNIQYLMR reads “inactive”; that for SRECLRKLDVSNSTRIK, -0.097 ± 0.24; that for SRFLLRNCPFLSGHVFTSQT, “inactive”.
SRFLRMASGYWSN: the amyloid nucleation score result is “inactive”.
Then SRGLFTNGVASFRRVCGLPW, with “inactive”; and SRITLPDIIMFHCMFNGTDV, with 0.339 ± 0.67.
Turning to SRLNFVCRGGSSAVFRRKAH, the amyloid nucleation score entry was “inactive”.
The result for SRMLVSKLWKNMGLVSSAYL reads “inactive”; that for SRNFTRHILHDLHYAGILKA, “inactive”; that for SRPAYSRRFMLTGDITVIKL, 1.66 ± 0.071.
The result for SRRDYRLGSTVKLVVLGKSF reads “inactive”; that for SRRKGQVVGCLQTMCCCKVE, “inactive”.
Turning to SRRLVKESDDRGCCRGLFWD, the amyloid nucleation score entry was “inactive”.
Then SRSDKNHRNVANLNGVWCVT, with “inactive”; and SRSMDGSVCAFRMDMSSMD, with “inactive”; and SRVITDVHERVAVGGVVIWD, with 0.003 ± 0.31.
Then SRVKDYCSFGLDFKCVCVFL, with 2.06 ± 0.094; and SRVWMITRLFGTMA, with “inactive”.
Then SRYFYDADYLFGGHSVAGQI, with “inactive”; and SRYQMGYKCFMSWHHTGHFN, with “inactive”; and SRYSYVYTSESLYRASVSSV, with “inactive”.
Regarding SSAGYVVYIVMSRS, the amyloid nucleation score stood at 2.65 ± 0.065.
Consider SSCRDVWWKVVVVPTFTGGV, for which the amyloid nucleation score entry is “inactive”.
Then SSCRETTLEFAMGGTTVHLQ, with “inactive”; and SSDECV, with “inactive”.
Then SSDSYLVRESDKSSEWGTRN, with “inactive”; and SSFFMRIVCMFYLIRKVMKC, with “inactive”.
The result for SSFYFCFMSCCYGLGFYLEI reads “inactive”; that for SSGVEAGVSRMMLQ, “inactive”.
Turning to SSIVEPQQLTGGPASGRFGE, the amyloid nucleation score result is “inactive”.
The result for SSLGNSLVMYVVCAWVN reads 0.273 ± 0.37; that for SSLGWFQVSHFRYWNRRCGL, “inactive”; that for SSLHARRYGLHLSLLSPARA, “inactive”.
The result for SSLLVRVRIYMGMMLLTIVR reads “inactive”; that for SSLPMGFRSVI, “inactive”.
Then SSLRLRDMSASENNRGSMPV, with “inactive”; and SSNLYMSSFWTSMMTWPTNY, with “inactive”.
On to SSNVPFVWCIPLMIAGIVGH, for which the amyloid nucleation score was -0.348 ± 0.75.
Then SSPRGCKSELPSGLGTYCRV, with “inactive”; and SSPRYVCWNF, with “inactive”; and SSRRPWIIGSMST, with “inactive”.
On to SSRTCK, for which the amyloid nucleation score entry is “inactive”.
The result for SSSAF reads “inactive”; that for SSSSIVLDGLTFWLINTVTT, 0.598 ± 0.21.
The result for SSSTVYISVLVINHIDGSIR reads 2.42 ± 0.051; that for SSSYFIALWYFRTTRLSGGL, “inactive”.
Then SSTLHRQIRRGVTVNELLRG, with “inactive”.

The values are drawn from the supplement of paper PMC12042874.
